Results: IntAct's records for PubMed 28587924

B1: Argininosuccinate synthase (Homo sapiens), P00966 (parent)
chain: MSSKGSVVLAYSGGLDTSCILVWLKEQGYDVIAYLANIGQKEDFEEARKKALKLGAKKVFIEDVSREFVEEFIWPAIQSSALYEDRYLLGTSLARPCIARKQVEIAQREGAKYVSHGATGKGNDQVRFELSCYSLAPQIKVIAPWRMPEFYNRFKGRNDLMEYAKQHGIPIPVTPKNPWSMDENLMHISYEAGILENPKNQAPPGLYTKTQDPAKAPNTPDILEIEFKKGVPVKVTNVKDGTTHQTSLELFMYLNEVAGKHGVGRIDIVENRFIGMKSRGIYETPAGTILYHAHLDIEAFTMDREVRKIKQGLGLKFAELVYTGFWHSPECEFVRHCIAKSQERVEGKVQVSVLKGQVYILGRESPLSLYNEELVSMNVQGDYEPTDATGFININSLRLKEYHRLQSKVTAK
partner: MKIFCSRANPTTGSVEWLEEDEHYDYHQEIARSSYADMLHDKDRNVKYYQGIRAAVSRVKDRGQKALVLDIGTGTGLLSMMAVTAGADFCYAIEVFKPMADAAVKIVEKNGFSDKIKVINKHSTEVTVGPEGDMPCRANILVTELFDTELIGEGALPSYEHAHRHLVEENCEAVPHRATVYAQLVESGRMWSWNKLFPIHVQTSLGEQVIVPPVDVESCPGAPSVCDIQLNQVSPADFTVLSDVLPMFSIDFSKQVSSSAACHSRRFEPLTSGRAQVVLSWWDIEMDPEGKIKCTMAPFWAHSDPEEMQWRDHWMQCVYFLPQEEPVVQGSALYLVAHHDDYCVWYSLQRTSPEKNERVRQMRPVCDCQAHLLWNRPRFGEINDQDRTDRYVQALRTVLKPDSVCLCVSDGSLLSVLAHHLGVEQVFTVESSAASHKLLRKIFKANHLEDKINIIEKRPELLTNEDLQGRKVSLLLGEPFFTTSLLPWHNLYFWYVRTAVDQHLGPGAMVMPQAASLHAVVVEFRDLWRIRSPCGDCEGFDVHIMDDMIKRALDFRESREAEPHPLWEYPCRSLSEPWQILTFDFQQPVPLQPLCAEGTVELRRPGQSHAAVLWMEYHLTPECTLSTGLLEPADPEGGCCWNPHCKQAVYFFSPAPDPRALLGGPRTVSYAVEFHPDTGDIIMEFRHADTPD

Experiments:
[1] = variants of: B1; details: with anm7_human PRMT7, Q9NVM4
[2] = variants of: B1; details: with anm7_human PRMT7, Q9NVM4; remark: listed apart in the source

Row | effect of a mutation on the interaction [1] | effect of a mutation on the interaction [2] | Variant
1 | disrupting interaction strength | decreasing interaction strength | MSSKGSVVLAYSGGLDTSCILVWLKEQGYDVIAYLANIGQKEDFEEARKKALKLGAKKVFIEDVSREFVEEFIWPAIQSSALYEDRYLLGTSLARPCIARKQVEIAQREGAKYVSHGATGKGNDQVRFELSCYSLAPQIKVIAPWRMPEFYNRFKGRNDLMEYAKQHGIPIPVTPKNPWSMDENLMHISYEAGILENPKNQAPPGLYTKTQDPAKAPNTPDILEIEFKKGVPVKVTNVKDGTTHQTSLELFMYLNEVAGKHGVGRIDIVENRFIGMKSRGIYETPAGTILYHAHLDIEAFTMDREVRKIKQGLGLKFAELVYTGFWHSPECEFVRHCIAKSQERVEGKVQVSVLKGQVYILGLESPLSLYNEELVSMNVQGDYEPTDATGFININSLRLKEYHRLQSKVTAK [R363L]
2 | disrupting interaction strength | decreasing interaction strength | MSSKGSVVLAYSGGLDTSCILVWLKEQGYDVIAYLANIGQKEDFEEARKKALKLGAKKVFIEDVSREFVEEFIWPAIQSSALYEDRYLLGTSLARPCIARKQVEIAQREGAKYVSHGATGKGNDQVRFELSCYSLAPQIKVIAPWRMPEFYNRFKGRNDLMEYAKQHGIPIPVTPKNPWSMDENLMHISYEAGILENPKNQAPPGLYTKTQDPAKAPNTPDILEIEFKKGVPVKVTNVKDGTTHQTSLELFMYLNEVAGKHGVGRIDIVENRFIGMKSRGIYETPAGTILYHAHLGIEAFTMDREVRKIKQGLGLKFAELVYTGFWHSPECEFVRHCIAKSQERVEGKVQVSVLKGQVYILGRESPLSLYNEELVSMNVQGDYEPTDATGFININSLRLKEYHRLQSKVTAK [D296G]
3 | decreasing interaction strength | – | MSSKGSVVLAYSGGLDTSCILVWLKEQGYDVIAYLANIGQKEDFEEARKKALKLGAKKVFIEDVSREFVEEFIWPAIQSSALYEDRYLLGTSLARPCIARKQVEIAQREGAKYVSHGATGKGNDQVRFELSCYSLAPQIKVIAPWRMPEFYNRFKGRNDLMEYAKQHGIPIPVTPKNPWSMDENLMHISYEAGILENPKNQAPPGLYTKTQDPAKAPNTPDILEIEFKKGVPVKVTNVKDGTTHQTSLELFMYLNEVAGKHGVGRIDIVENRFIGMKSRGIYETPAGTILYHAHLDIEAFTMDREVRKIKQGLGLKFAELVYTGFWHSPECEFVRHCIAKSQERVEGKVQVSVLKGQVYALGRESPLSLYNEELVSMNVQGDYEPTDATGFININSLRLKEYHRLQSKVTAK [I360A]
